Data set [1] relates to CENP-N R124A (Homo sapiens). The experiment in a line: EMSA. (In EMSA bound probe runs differently from free probe, usually more slowly.)
In data set [2] the test system is CENP-N K15A (Homo sapiens). The experiment in a line: EMSA.
Data set [3] has as its target H3^CATD mononucleosome, reconstituted with alpha-satellite DNA. The data set can be described thus: native gel or EMSA.
Data set [4] has as its system CENP-N (Homo sapiens). The data set can be described thus: EMSA.

In PMC2704923 one finds Kd data, which are given here for 3 substances.

Sequence of CENP-N (wildtype), 35S-labelled, in vitro translated (Q96H22 whole entry): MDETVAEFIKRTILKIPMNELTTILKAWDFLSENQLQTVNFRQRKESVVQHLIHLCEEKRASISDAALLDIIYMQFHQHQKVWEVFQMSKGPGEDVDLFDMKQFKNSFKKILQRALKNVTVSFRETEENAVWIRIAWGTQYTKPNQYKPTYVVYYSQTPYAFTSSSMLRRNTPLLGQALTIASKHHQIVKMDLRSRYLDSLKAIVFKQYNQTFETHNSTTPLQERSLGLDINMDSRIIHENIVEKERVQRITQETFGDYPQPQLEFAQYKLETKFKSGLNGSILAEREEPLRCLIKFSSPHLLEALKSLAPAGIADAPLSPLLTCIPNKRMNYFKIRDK

Take CENP-A nucleosome, alpha-satellite: the dissociation constant Kd – broadly, the equilibrium constant for the complex coming apart – amounted to 72 nM in data set [1] and 297 nM in data set [2]. Take “CENP-N (wildtype), 35S-labelled, in vitro translated (from UniProt Q96H22 1-339) (natural protein)”: the Kd in data set [3] stood at 163 nM. Take H3CATD nucleosome, alpha-satellite: in data set [4], the dissociation constant Kd came to 163 nM.
